In assay [1] the target is T1, his-tagged human B7H3 antigen protein (human, UniProt Q5ZPR3 29-461, limits assumed).
T1 construct: also called B7H3-his; CD276; not shown: his tag
T1 sequence (looked up): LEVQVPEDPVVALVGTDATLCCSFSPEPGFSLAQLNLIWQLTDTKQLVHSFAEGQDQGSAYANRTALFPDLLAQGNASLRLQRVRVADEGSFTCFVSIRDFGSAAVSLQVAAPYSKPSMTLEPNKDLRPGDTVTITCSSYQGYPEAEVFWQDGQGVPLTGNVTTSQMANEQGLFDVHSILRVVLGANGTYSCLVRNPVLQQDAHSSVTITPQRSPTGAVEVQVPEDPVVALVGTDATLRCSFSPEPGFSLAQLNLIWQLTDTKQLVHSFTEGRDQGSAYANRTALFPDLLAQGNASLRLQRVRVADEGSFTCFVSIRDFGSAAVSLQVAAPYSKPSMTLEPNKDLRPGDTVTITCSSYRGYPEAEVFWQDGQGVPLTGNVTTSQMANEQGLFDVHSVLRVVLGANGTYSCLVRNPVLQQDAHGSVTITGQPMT
Put plainly: binding ELISA, plate coated with his-tagged B7H3 at 2 ug/ml. The method, then:
(§1) A 96-well ELISA plate was coated with 2 μg/ml of his-tagged PDL1 or B7H3 antigen protein at 4° C. overnight, and 100 μl of Casein blocking solution was added to each well the next day for blocking at 37° C. for 1 hour. […] After incubation at 37° C. for 1 hour, unbound antibodies were washed off with 0.1% PBST, and bound antibodies were detected using horseradish peroxidase (HRP)-conjugated goat anti-human IgG (H+L) antibody (Jackson ImmunoResearch, USA), and 50 μl of 3,3′,5,5′-tetramethylbenzidine substrate (TMB) was used for color development. After standing for 5 minutes, 50 μl of 2 M sulfuric acid was added to stop the color development, and then the absorbance was detected using a SpectraMax M5e (Molecular Devices) microplate reader at OD450 nm. The antibody concentration was plotted against the OD450 reading using a 4-parameter fitting method, and the EC₅₀ was calculated.

For assay [2], the target named is T2, B7H3 antigen (huB7H3 antigen) (human, UniProt Q5ZPR3 29-461, limits assumed).
T2 sequence (looked up): T1 sequence (looked up)
Description: BLI, VHH-Fc (100 nM) captured on Protein A probe, B7H3 antigen from 200 nM in 2-fold dilutions. Here is the method: The above phage clones were sequenced to obtain the B7H3 VHH gene sequence, and its C-terminus was fused with the human Fc protein gene to construct and express B7H3-Fc. 100nM of B7H3 VHH-Fc was captured by the biolayer interferometry method using the Protein A probe and bound to B7H3 antigen with an initial concentration of 200 nM, a 2-fold dilution. The KD value of the antibody binding to antigen was calculated.

The target of assay [3] is T3, his-tagged human PDL1 antigen protein (human, UniProt Q9NZQ7 19-238).
T3 construct: also called PDL1-his; not shown: his tag
T3 sequence (Q9NZQ7 19-238 limits assumed): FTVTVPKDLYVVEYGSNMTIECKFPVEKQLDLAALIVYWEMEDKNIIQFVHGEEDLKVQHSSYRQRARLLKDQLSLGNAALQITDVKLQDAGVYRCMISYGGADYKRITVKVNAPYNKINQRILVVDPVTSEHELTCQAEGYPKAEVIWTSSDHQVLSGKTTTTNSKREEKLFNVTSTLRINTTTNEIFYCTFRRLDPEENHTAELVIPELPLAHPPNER
Put plainly: binding ELISA, plate coated with his-tagged PDL1 at 2 ug/ml. Here is the method:
as §1

Assay [4] deals with T4, biotinylated PDL1 antigen (human, UniProt Q9NZQ7 19-238, biotinylated (sites not given)).
T4 construct: also called human PDL1 (biotinylated)
T4 sequence (Q9NZQ7 19-238 limits assumed): as above
Put plainly: flow cytometry, blocking of biotinylated PDL1 (50 nM) binding to CHO-PD1 cells. Here is the method: The mixed solution was then incubated with the cells at 4° C. for 45 minutes, and unbound antigens were washed off with PBS.
The cells were then fluorescently stained with PE-streptavidin. Finally, the mean fluorescence intensity (MFI) of the PE channel in the flow cytometer was read, the antibody concentration was plotted against MFI, and the IC₅₀ of the antibody was calculated using a four-parameter fitting.

The target of assay [5] is T1, his-tagged human B7H3 antigen protein. Put plainly: BLI (Octet), antibody on Protein A probe, B7H3-his from 200 nM in 2-fold dilutions. Here is the method:
(§2) Kon and Koff values were calculated using the software provided by the supplier to obtain the KD value of the antibody.

The target of assay [6] is T3, his-tagged human PDL1 antigen protein. Put plainly: BLI (Octet), antibody on Protein A probe, PDL1-his from 200 nM in 2-fold dilutions. Here is the method:
as §2

Assay [7] concerns the target T1, his-tagged human B7H3 antigen protein. Put plainly: ELISA on coated B7H3-his, bispecific antibody not heat-treated (4°C). Here is the method: as §1
Assay [8] addresses T3, his-tagged human PDL1 antigen protein. Description: ELISA on coated PDL1-his, bispecific antibody after 1 hour at 60°C. Here is the method:
as §1

The target is the same in assay [9]. Description: ELISA on coated PDL1-his, bispecific antibody not heat-treated (4°C). Here is the method:
as §1

For assay [10], the target named is T1, his-tagged human B7H3 antigen protein. Put plainly: ELISA on coated B7H3-his, bispecific antibody after 1 hour at 60°C. The method, then:
as §1

B1: B7H3 VHH-Fc (humanized anti-B7H3 VHH 75-16 fused to human Fc) (Fc fusion)
chain: DVQLQESGGGLVQAGGSLRLSCTASGYTLSTIWIGWFRQAPGKGLEGVAAIYIGSGATYYVDSVKGRFTISQDNAKNTVYLQMNSLKPEDTAMYYCAATGGTVGSMVRFSPVGDFGYWGQGTQVTVSS
notes: also called B7H3-Fc; not shown: human Fc fused to the C-terminus of the VHH
For the molecule B1, the EC50 in assay [1] was 0.0251 nM. The molecule further yielded a dissociation constant (Kd) in [2] of 3.24 nM.

B2: PDL1 monoclonal antibody (antibody, human IgG1, kappa, V domains shown)
VH: QVQLVQSGAEVKKPGASVKVSCKASGYTFTTFGVHWVRQAPGKGLEWVGIIWPGGNTNYNSALMSRVTITADESTSTAYMELSSLRSEDTAVYYCARENYGRAMDYWGQGTTVTVSS
VL: DIQMTQSPSSLSASVGDRVTISCRASQSINTYLHWYQQKLGQAPRLLIYYASQSISGVPSRFSGSGSGTDFTLTINSLEAEDAATYYCQNGHSFPLTFGAGTKVEIKR
notes: Parental humanized IgG1 of the bispecific antibody; also called PDL1 hIgG1 humanized monoclonal antibody
B2 came in with a 50% effective concentration (EC50) in [3] of 0.441 nM. Moreover, the IC50 in assay [4] was 94.2 nM.

B3: Enoblituzumab (MGA271) (antibody, V domains shown)
VH: EVQLVESGGGLVQPGGSLRLSCAASGFTFSSFGMHWVRQAPGKGLEWVAYISSDSSAIYYADTVKGRFTISRDNAKNSLYLQMNSLRDEDTAVYYCGRGRENIYYGSRLDYWGQGTTVTVSS
VL: DIQLTQSPSFLSASVGDRVTITCKASQNVDTNVAWYQQKPGKAPKALIYSASYRYSGVPSRFSGSGSGTDFTLTISSLQPEDFATYYCQQYNNYPFTFGQGTKLEIKR
B3: the EC50 in assay [1] amounted to 0.0548 nM. This lies in the picomolar range.

B4: B7H3/PDL1 bispecific antibody (bispecific antibody, human IgG1, kappa)
heavy: not shown
light: DIQMTQSPSSLSASVGDRVTISCRASQSINTYLHWYQQKLGQAPRLLIYYASQSISGVPSRFSGSGSGTDFTLTINSLEAEDAATYYCQNGHSFPLTFGAGTKVEIKRTVAAPSVFIFPPSDEQLKSGTASVVCLLNNFYPREAKVQWKVDNALQSGNSQESVTEQDSKDSTYSLSSTLTLSKADYEKHKVYACEVTHQGLSSPVTKSFNRGEC
notes: Anti-PDL1 hIgG1 with one anti-B7H3 VHH (75-16) at the C-terminus of each heavy chain's Fc; also called IgG-VHH2
On to B4, for which the results for the dissociation constant Kd in assay [5] and in assay [6] were 8.11 nM and 0.585 nM, respectively. In addition, the concentration for a half-maximal effect (EC50) came to 0.0411 nM in [1] and 0.306 nM in [3]. Moreover, the half-maximal effective concentration (EC50 (read off the curve)) in assay [7] was approximately 0.02 nM; in assay [8] it was approximately 0.04 nM; in assay [9], approximately 0.04 nM; in assay [10], approximately 0.02 nM. In assay [4], this molecule returned an IC50 of 106 nM.

The values above are taken from patent US20260092116A1 (DARTSBIO PHARMACEUTICALS, published 2026).
